According to article doi:10.1101/746180 (bioRxiv, 2020):
Ends that are not written are not given here.

Experiments:
His-MBTD1 = His-MBTD1 (UniProt Q05BQ5 1-628); assay: ITC
[1] = target: MBTD1(140-562)-(GSA)6-EPC1(644-672) fusion protein (UniProt Q05BQ5 140-562; Q9H2F5 644-672); assay: ITC

His-MBTD1, sequence (Q05BQ5 whole entry, the tested form may be a part): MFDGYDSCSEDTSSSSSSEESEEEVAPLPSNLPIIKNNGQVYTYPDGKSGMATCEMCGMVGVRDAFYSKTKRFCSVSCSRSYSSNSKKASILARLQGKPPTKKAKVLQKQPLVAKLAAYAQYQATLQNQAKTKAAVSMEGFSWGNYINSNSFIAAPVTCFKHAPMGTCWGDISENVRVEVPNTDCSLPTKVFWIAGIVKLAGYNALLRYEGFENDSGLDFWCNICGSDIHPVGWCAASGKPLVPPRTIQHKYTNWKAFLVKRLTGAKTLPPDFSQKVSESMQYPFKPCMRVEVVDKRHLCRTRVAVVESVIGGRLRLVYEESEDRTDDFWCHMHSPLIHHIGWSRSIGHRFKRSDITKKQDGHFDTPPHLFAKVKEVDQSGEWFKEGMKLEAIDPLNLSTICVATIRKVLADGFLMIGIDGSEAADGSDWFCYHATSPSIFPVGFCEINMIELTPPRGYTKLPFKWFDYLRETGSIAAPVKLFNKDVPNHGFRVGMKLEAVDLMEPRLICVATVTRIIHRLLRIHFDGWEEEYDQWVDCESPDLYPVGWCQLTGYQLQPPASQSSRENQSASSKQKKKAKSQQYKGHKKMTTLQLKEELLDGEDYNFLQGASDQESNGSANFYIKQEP

Row | Kd (His-MBTD1) | stoichiometry N (His-MBTD1) | binding result [1] | Binder
1 | ~67 nM | ~1.3 | – | QGFVSKTLDSASAQFAASALVTSEQLMGF (domain or fragment, UniProt Q9H2F5 644-672, looked up) [GST-EPC1(644-672)]
2 | – | – | binds | AKRHRK(Me)VLRDN [H4K20me1 peptide]
